Assay: yeast display, Sf9 membrane polyspecificity reagent, FACS + sequencing; frameworks hold sequencing errors
How it was run: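 Galactose-induced (36–48 hours) yeast carrying a synthetic nanobody display library were exposed to 10% biotinylated, detergent-solubilized Sf9 membrane reagent at 4 °C for 1 hour. FACS followed streptavidin microbead enrichment, using low and high (top ~1%) gates for expression (anti-HA) and reagent binding (streptavidin). Colony PCR, MiSeq 2 × 250 sequencing and CDR-length filtering followed. Labels for polyreactivity reflect the gate of origin.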

Sequence: QDQLVESGGGLVQAGGSLRLSCAASGSIFDRNAMGWYRQAPGKERELVAAITSRGGRTYYADSVKGRFTISRDNAKNTVYLQMNSLKPEDTAVYYCNAVYSQSGYFYRFDYWGQGTQVTVSS
- polyreactivity (PSR sort gate): high polyreactivity

Sequence: QVHLVESGGGLVQAGGSLRLSCAASGFIFSWYDMGWYRQAPGKERELVAAINWSGGSTYYADSVKGRFTISRDNAKNTVYLQIISLKPEDTAVYYCAAVRQSQFEYWGQGTQVTVSS
- polyreactivity (PSR sort gate): high polyreactivity

Sequence: QVQLVESGGGLVQAGGSLRLSCAASGITFSRNAMGWYRQAPGTDRELGAVISTRGGRTYYADSVKGRFTISRDNAKNTVYLQMNSLKPEDTAVYYCAASPDPYWRRMDYWGQGTQVTVSS
- polyreactivity (PSR sort gate): high polyreactivity

Sequence: QVQLVESGGGLVQAGGSLRLSCAASGFTFEDYAMGWYRQAPGTERELVAAISSRGTSTYYADSVKGRFTISRDNAKNTVYLQMNSLKPEDTAVYYFNKRGWYPYGYWGQGTQVTVSS
- polyreactivity (PSR sort gate): high polyreactivity

Sequence: QVQLVESGGGLVQAGGSLRLSCAASGRTFKLNAMGWYRQAPGKERELVAGITRTGDSTYYADSVKGRFTISRDNAKNTVYLQMNSLKPEDTAVYYCAKDGPWKFIYDYWGQGTQVTVSS
- polyreactivity (PSR sort gate): low polyreactivity

Sequence: QVQLVESGGGLVQAGGSLRLRCAASGTTTSNNSMGWYRQAPGKERELVADMSTNGDSTSYADSVKGRYTISRDNAKNTVYLQMNSLKPVDTAVYYCAASTYVTYWEYDYWGQGTQVTVSS
- polyreactivity (PSR sort gate): low polyreactivity

Sequence: QVQLVESGGGLVQAGGSLRLSCAASGSTFWVYAMGWYRQAPGKERELVATISRGGSTNYADSVKGRFTISRDNAKNTVYLQMNSLKPEDTAVYYCAAPRFYGYGYEYCGQGTQVTVSS
- polyreactivity (PSR sort gate): low polyreactivity

Sequence: QVQLVESGGGLVQAGGSLRLSCAASGSIFRSYAMGWYRQAPGKERELVAGISYSGGSTYYADSVKGRFTISRDNAKNTVYLQMNSLKPEDTAVYYCATVSYYDRYDYDYWGQGTQVTVSS
- polyreactivity (PSR sort gate): low polyreactivity

Sequence: QVQLVESGGGLVQAGGSLRLSCAASGSTFRPYSMGWYRQAPGKEREFVAAINYRGGSTNYADSVKGRFTISRDNAKNTVYLQMNSLKPEDTAVYYCAATYYLRLRRPYWQGFNYWGQGTQVTVSS
- polyreactivity (PSR sort gate): high polyreactivity

Sequence: QVQLVESGGGLVQAGRSLRLTCAASGRTLGYNAMGWYRQPPGKERELVAAITYSGSRTYYADSVKGRFTISRDNAKNTVYLQMNSLKPEDTAVYYCAAGGYIAYYYYRFDYWGQGTQVTVSS
- polyreactivity (PSR sort gate): high polyreactivity

Sequence: QVQLVESGGGLVQAGGSLRLSCAASGNTFRRYAMGWYRQAPGKERELVAAITGGTRTYYADSVKGRFTISRDNAKNTVYLQMISLKPEDTAVYYCAARLTSRSYRYDYWGQGTQVTVSS
- polyreactivity (PSR sort gate): high polyreactivity

Sequence: QVHLVESGGGLVQAGGSLRLSCASYGRTFGIYAMGWYRQAPGKERELVATISWRGGSTYYADSVKGRFTISRDNAKNTVYLQMNSLKPEDTAVYYCAAETWYSGYTYDYWGQGTQVTVSS
- polyreactivity (PSR sort gate): low polyreactivity

Sequence: QVQLVESGGDLVQAGASLRLSCASSGRTFRHNALGRYRQAPGKERYLVATISNRGGTTYYADSVKGRFTISRDNAKNTVYLQMNSLKPEDTAVYYCAARVGVLGYVRYGYWGQGTQVTVSS
- polyreactivity (PSR sort gate): low polyreactivity

Sequence: QDQRVESGGGLVQAGGSLRLSCAASGRIFSWYAMGWYRQAPGQERELVAAIDSGGRTNYADSVKGRFTISRDNAKNTVYLQMNSLKPEDTAVYYCAKEGYWPRYWERFDYWGQGTQVTVSS
- polyreactivity (PSR sort gate): low polyreactivity

Sequence: QVQLVESGGGLVQAGGSLRLSCAASGSIFYQNAMGWYRQAPGKEREFVAAIRSSGSSTYYADSVKGRFTISRDNAKNTVYLQMNSLKPEDTAVYYCAAPSSRGQGRNFDYWGQGTQVTVSS
- polyreactivity (PSR sort gate): high polyreactivity

Sequence: QVQLVESGGGLVQAGGSLRLSCAASGSTFTRYAMGSYRQAPGKERELVAAISRTGGSRTYYADSVKGRFTISRDNAKNTVYLQMNSLNPEDTAVYYCAKGYWRYLGFLYFFPARDYWGQGTQVTVSS
- polyreactivity (PSR sort gate): high polyreactivity

Sequence: QVHLVESGGGLVQAGGSLRLSCAASGRTFVYNAMGWYRQAPGKERELVAAISQSGGSTYYADSVKGRFTISRDNAKNTVYLQMNSLKPEDTAVYYCAARYKTGSYVRYNYWGQGSQVTVSS
- polyreactivity (PSR sort gate): high polyreactivity

Sequence: QVQLLESGGGLVQAGGSLRLSCAASGRIFGSNAMGWYRPAPGKERELVAAITRGGSTNYADSVKGRFTISRDNAKNTVYLQMNSLKPEDTAVYYCAVRWYRKYNYWGQGTQVTVSS
- polyreactivity (PSR sort gate): high polyreactivity

Sequence: QVWLQESGGGLVQACGSLRLSCAASGTISRDIFMGWYRQAPGKEREFVATIAQGGITNYADSVKGRFTISRDNAKNTVYLQMNSVKPGDTAVYYCAARDGNCYWFYYGGQGTQVTVSS
- polyreactivity (PSR sort gate): high polyreactivity

Sequence: QVQLVESGGGLVQAGGSLRLICAASGRTFRFYAMGWYRQAPGKERELVAAINYGGGNTYYADSVKGRFTISRDNAKNTVYLQMNSLKADDTAVYYCAAQYYYRARWFPYDYWGQGTQVTVSS
- polyreactivity (PSR sort gate): high polyreactivity

Sequence: QVQLVESGGGLVQAGGSLRLTCPASGSTFHGYDMGCYRQAPGKERELVAAITSSGDDTYYADSVKGRFTISRDNAKNTVYLQMNSLKPEDTAVYYCAAEYTEGYTHDYWGQGSQVTVSS
- polyreactivity (PSR sort gate): low polyreactivity

Sequence: QDQHVESGGCLVQAGGSLRLSCAASGRTFVRNTMGWYRQAPGKEREFVAAISRSGGNTHYADSVKGRFTISRDNAKNTVYLQMNSLKPEDTAVYYCATRAGYEVYPNKMNYWGQGTQVTVSS
- polyreactivity (PSR sort gate): high polyreactivity

Sequence: QVQLVESGGGLVQAGGSLRLSCAASGLTLYKNGMGWYRQAPGKERELVAVISRSGGRTYYADSVKGRFTISRDNAKNTVYVQMNSLKPEDTAVYYCAARQYGPRYTYYYWGQGTQVTVSS
- polyreactivity (PSR sort gate): high polyreactivity

Sequence: QDQHVESGGGLVQAGGSLRLSCAASGRTFYQYAMGWYRQAPGKERELVAVINGGGSTNYADSVKGRFTISRDNAKNTVYLQMNSLKPEDTAVYYCNAGSVSDRQMDYWGQGTQVTVSS
- polyreactivity (PSR sort gate): low polyreactivity

Sequence: QVQIVESCGGLVQAGGSLRLICAASGFIFTHYAMGWYRQAPGKERELVAAISSGGSTYYADSVKGRFTISRDNAKYTVYLQMNSLKPEDTAVYYCAAVWPWRYYATGENYWGQGTQVTVSS
- polyreactivity (PSR sort gate): high polyreactivity

Sequence: QVQLVESGGGLVQAGGSLRLSCAASGSTFRVYAMGWYRQAPGKERELVAAISGSGGSTYYADSVKGRFTISRDNAKNTVSLQMNSMKPEDTAVYYCAARSWYTEYYWGQGTQVTVSS
- polyreactivity (PSR sort gate): high polyreactivity

Sequence: QVQLVESGGGLVQAGGSLRLSCAASGFTFSKYAMGWYRQAPGKERELVASIDDGGSTNYADSVKGRFTISRDNAKNTVYLQKNSLKPEDTAVYYCNASYPTGYWYYVIVQYDYWGQGTQVTVSS
- polyreactivity (PSR sort gate): low polyreactivity

Sequence: QVQLVESGGGLVQAGGSLRLSCAASGSILRRNTMGCYRQAPGKERELVAAINKTGGSTYYADSVKGRFTISRDNAKNTVYLQMNSLKPEDTAVYYCNRDKYYGTKYDYWGQGTQVTVSS
- polyreactivity (PSR sort gate): low polyreactivity

Sequence: QVQLVESGGGLVQAGGSLRLSCAASGRTFAVYSMGWYRQATGKERELVAVISSGGGTDYADSVKGRFRISRDNAKNTVYLQMNSLNPEDTAVYYCAADSVTFLATQPGDYWGQGTQVTVSS
- polyreactivity (PSR sort gate): low polyreactivity

Sequence: QVQLVESGGGLVQAGGSLRLSCAASGRIFGYYAMGWYRQAPGKERELVAAISYTGGSTYYADSVKGRFTISRDNAKNTVYLQMNSLKPEDTAVYYCAAKHYKRLDYWGQGTQVTVSS
- polyreactivity (PSR sort gate): high polyreactivity

Sequence: QVQLVESGGGLVQAGGSLRLSCAASGYILHPNAMRWYRQSPGKDRELVAAIRWRGGSTYYADSVKGRFTISRDNAKNTVYLQMNSLKPEDTAVYYCAADKSKYRAFDYWGQGTQVTVSS
- polyreactivity (PSR sort gate): high polyreactivity

Sequence: QVQLVESGGGLVQAGGSLRLSCAASGRIFASNAMGWYRQAPGKERELVAAIDQGGGSSYYADSVKGRFTISRDNAKNTVYLLMNSLKPEDTAVYYCAADYITAYPRLYNYWGQGTQVTVSS
- polyreactivity (PSR sort gate): low polyreactivity

Sequence: QVQLVESGGGLVQAGGSLRLSCAASGRTFGIYAMGWYRQAPGKERELVADITIGGSTYYADSVKGRFTISRDNAKNTVYLQMNSLKPEDTAVYYCNADVVVQYYFTYYRVFTYDYWGQGTQVTVSS
- polyreactivity (PSR sort gate): low polyreactivity

Sequence: QVQLVESCGGLVQAGGSLRLSCAPSGRTIVYKAMGWYRQAPGKERELVAAISWSGGSPYYADSVKGRFTISRDNAKNTVNLQMNSLKPDDSAVYYCATSSYYYTIWMYYWGQGTQVTVSS
- polyreactivity (PSR sort gate): high polyreactivity

Sequence: QVQLVESGGGLVQAGGSLRLSCAASGRIFYYYAMGWYRQAPGKERELVADITWSGGSTYYADSVKGRFTISRDNAKNTVYLLRNSLKPEDTAVYYCNAVSFNYLLEYDYWGQGTQVTVSS
- polyreactivity (PSR sort gate): high polyreactivity

Sequence: QVQLVESGGGLVQAGGSLRLSCAASGSISTFYAMGWYRQAPGKEREFVAAISTRDGTTRYADSVKGRFTISRDNAKNTVYLQMNSLKPEDTAVYYCAAKGGGVWLYARIYSDYYWGQGTQVTVSS
- polyreactivity (PSR sort gate): low polyreactivity

Sequence: QVQLVESGGGLVQAGGSLRLSCAASGSTLGQYAMGWYRQAPGKERELVAASRRGVRTYYADSVKGRFTISRDNAKNTVYFQMNSLKPEDTAVFYCAARRDVSRPVVGTMGYWGQGSQVTVSS
- polyreactivity (PSR sort gate): high polyreactivity

Sequence: QVQLVESGGGLVQAGGSLRLSCAASGITFYRYAMGWYRQAPGKERELVAAITGSGDSTYYADSVKGRFTISRDNAKNTVYLQMNSLKPEDTAVYYCNTDYGRRYDYWGQGTQVTVSS
- polyreactivity (PSR sort gate): high polyreactivity

Sequence: QVQHVESGGGLVQAGGRLSLICSASGGNIKFNAMGWYRQAPGKERELVAAITDGGSTYYADSVKGRFTISRDNAKNTVYLEMNSLKAEDTAVYYCNAEGVSLYGYDSGVDSGEDYWGQGTQVTVSS
- polyreactivity (PSR sort gate): low polyreactivity

Sequence: QVQLVESGGGLVQAGGSIRLSCAASGRTFDSNAIGWYRQAAGKEWQLVAAISCSGDTTYDADTVKGRFTISRDNAKNTVYLQINILKPEDTAVYYCAADHDSYDSGYDYWGQGTQGTVSS
- polyreactivity (PSR sort gate): low polyreactivity

Sequence: QVQLVESGGGLVQAGGSLRLSCAASGSTFGANAMGWYRQAPGKERELVAVITWNDGSTYYADSVKGRFTISRDNAKNTVYLQMNSLKPEDTAVYYCATDPTSGRFYYWGQGTQVTVSS
- polyreactivity (PSR sort gate): high polyreactivity

Sequence: QVHLVESGGVLVQAGGSLRLSCAASAGNFDTYAMGRYRQAPGKEREMVADITWSGGSTYYADSVKGRFTISRDNAKNTVYLQMNSLKPEDTAVYYCNADDPSKLGYEPDYWGQGTQVTVSS
- polyreactivity (PSR sort gate): low polyreactivity

Sequence: QVQLVETGGGLVQAGGSLRLSCAASGRIFLGYAMGCYRQAPGKERELVAAISGRGGRTNYADSVKGRFTISRDNAKNTVYLQMNSLKPEDTAVYYCATVPYTASRYEYWGQGTQVTVSS
- polyreactivity (PSR sort gate): high polyreactivity

Reference: the nanobody polyreactivity screen of Harvey et al. (2022)
